From patent publication US12662676B2, “Aptamer nucleic acid molecule, and complex and application thereof” (EAST CHINA UNIVERSITY OF SCIENCE AND TECHNOLOGY, priority 2019, dated 2026)

Tests used:
[1] = test system: BY4741 strain expressing F30-Pepper-1; assay: Labeling of yeast RNA; format: cell-based; conditions: 2 μM III-3 in PBS, 10 hours after galactose induction
From the text: In order to test the effect of Pepper-III-3 in yeast, a yeast expression plasmid expressing F30-Pepper-1 was constructed. The F30-Pepper-1 DNA fragment in Example 2 was amplified using primers, and the amplified F30-Pepper-1 fragment was inserted into the pYES2.1TOPO TA vector according to the commonly used experimental method (4). The obtained recombinant plasmid was named pYES2.1-F30-Pepper-1.
The recombinant plasmid pYES2.1-F30-Pepper-1 was transformed into BY4741 strain, and a single clone was picked and cultured at 30° C. to an OD600=0.1 before addition of 1 mM galactose to induce the expression of F30-Pepper-1. 10 hours after induction, the yeast cells were harvested and resuspended in PBS containing 2 μM III-3. The untreated BY4741 strain was used as the control.

[2] = test system: BL21(DE3, Star) E. coli strain expressing F30-Pepper-1; assay: Labeling of bacterial RNA; format: cell-based; conditions: 2 μM III-3 in PBS, 4 hours after IPTG induction
From the text: In order to test the effect of Pepper-III-3 in bacteria, a bacterial expression plasmid expressing F30-Pepper-1 was constructed. Primers were used to amplify F30-Pepper-1 in Example 2. Primers were used to amplify pET28a to remove the promoter and multiple cloning site regions. The obtained F30-Pepper-1 fragment and the linearized pET28a were ligated according to the commonly used experimental method (4). The obtained recombinant plasmid was named pET28a-T7-F30-Pepper-1.
The recombinant plasmid pET28a-T7-F30-Pepper-1was transformed into BL21(DE3, Star) E. coli strain. A single clone was picked and cultured at 37° C. to an OD600 around 0.2 before addition of 1 mM IPTG to induce the expression of F30-Pepper-1. 4 hours after induction, the bacteria were harvested and resuspended in PBS solution containing 2 μM III-3. BL21 (DE3, Star) E. coli transformed with pET28a empty vector was used as the control.

Pepper-based GTP sensor = format: biochemical; conditions: with III-3, presence vs absence of GTP; linkage 3
Protocol: In order to construct Pepper-based sensors for detecting analytes, the nucleotides in the stem-loop region in the Pepper-1 (SEQ ID No: 2) structure were replaced with the aptamers that can specifically recognize and bind adenosine and guanosine (GTP), respectively. The aptamers Pepper-1 were fused by linkage with different lengths and different nucleotides (FIG. 10A). The RNA sensors were prepared according to the commonly used experimental method (1). The RNA sensors were incubated with III-3 fluorophore, and the fluorescence was measured in the presence or absence of adenosine or GTP using a multifunctional microplate reader.

[3] = RNA extraction and purification with Mal-III-3 beads, in-gel fluorescence; conditions: gel incubated with 5 μM III-3 for 30 min
Protocol: In order to use Pepper for RNA extraction and purification, the pCDNA3.1 hygro(+)-TagBFP-4Pepper-7 and pCDNA3.1 hygro(+)-mCherry-4Pepper-7 plasmids in Example 12 were transfected into COS-7 cells, respectively. 24 hours after transfection, the cells were collected and the total RNA of the cells was extracted using the Easyp Super Total RNA Extraction Kit (Promega). The extracted total RNA was dissolved in buffer containing 40 mM HEPES, pH 7.4, 125 mM KCl, 5 mM MgCl2. The RNA was incubated at 70° C. for 10 min and placed at room temperature for more than 30 min.
500 μL activated Thiol Sepharose 4B (GE Healthcare) was washed twice with 500 μL PBS, and then was incubated with PBS containing 10 mM TCEP (Sigma) for 1 h at room temperature. After washing twice with 500 μL PBS, maleamide conjugated III-3 fluorophore (Mal-III-3) was added to react for 30 min at room temperature, and was washed three times with 500 μL PBS. The treated total RNA was incubated with the treated beads at room temperature. After 30 minutes, the mixture was centrifuged at 4000 rpm for 2 minutes, and the supernatant was discarded. […]
The recovered RNA was validated by electrophoresis. The gel was incubated with buffer containing 5 μM III-3 in 40 mM HEPES, pH 7.4, 125 mM KCl, and 5 mM MgCl2 for 30 min, and the fluorescence of 4Pepper-III-3 in the gel was detected.

[4] = Fluorescence activation of III-3 fluorophore by Pepper aptamers and mutants; format: biochemical; conditions: 1 μM III-3 with 5 μM RNA
Protocol: Preparation of Pepper or Pepper mutant aptamer according to the commonly used experimental method (1). 5 μM aptamer and 1 μM fluorophore were incubated in the detection buffer (40 mM HEPES, pH 7.4, 125 mM KCl, 5 mM MgCl2, 5% DMSO). The maximal excitation and emission peaks of the aptamer-fluorophore complexes were determined using a Synergy Neo2 multifunctional microplate reader. The fluorescence intensities of the aptamer-fluorophore complexes at the maximal excitation and emission peaks were determined using a Synergy Neo2 multifunctional microplate reader. The control sample (1 μM fluorophore without aptamer) was also measured under the same conditions. Then the ratios of fluorescence intensity were calculated. For example, the fluorescence maximal excitation and emission peaks of the complex of 5 μM F30-Pepper-2 and 1 μM III-3 fluorophore are 485 nm and 530 nm, respectively. The fluorescence intensity of the complex at 485±10 nm excitation and 530 nm±10 nm emission was 36,000, the fluorescence intensity of the control sample (1 μM III-3 fluorophore only) under the same detection conditions was 10. Thus, the activation ratio of F30-Pepper-2 aptamer on III-3 fluorophore was 3,600-fold.
In order to detect the fluorescence activation of III-3 fluorophore by different Pepper mutant, the Pepper-1 sequence in F30-Pepper-1 was mutated according to Table 1. […] 1 μM III-3 was incubated with […] RNA and their fluorescence activation folds were determined according to the commonly used experimental method (5). […] In summary, many Pepper mutants containing single and multiple mutants still retain the ability to activate the fluorescence of III-3 fluorophore.
In order to detect the activation of III-3 by modified Pepper, base-modified Pepper-3 was synthesized (SEQ ID NO: 6, the underlined nucleotides in […] GGCC contain deoxyribonucleotide bases) and Pepper-4 (SEQ ID NO: 7, the underlined nucleotides in […] GGGCC contain 2′-F modification) (synthesized by Shanghai GenePharma Co., Ltd), which contain deoxyribonucleotides replacement (shaded bases in FIG. 5A) or 2′-F modification (shaded bases in FIG. 5B) in the stem-loop region of Pepper. Detection of the fluorescence activation of III-3 fluorophore by these modified Peppers was carried out according to the commonly used experimental method (5).

[5] = Binding constant of Pepper and III-3; conditions: 2 nM F30-Pepper-1 with different concentrations of III-3
Protocol: In order to detect the binding constant of Pepper and III-3, 2 nM F30-Pepper-1 was incubated with different concentrations of III-3 and their fluorescence was determined.

[6] = Thermostability of Pepper (fluorescence after 5 minutes at different temperatures); format: physicochemical; conditions: 1 μM aptamer with 10 μM fluorophore (III-3 for F30-Pepper-1, DFHBI-1T for F30-Broccoli), 5 minutes at each temperature
Protocol: In order to test the thermostability of Pepper, 10 μM III-3 was incubated with 1 μM F30-Pepper-1, and then was placed at different temperatures for 5 minutes before the fluorescence was determined. 10 μM DFHBI-1T was incubated with 1 μM F30-Broccoli to be as the control.

[7] = Native PAGE oligomerization identification; conditions: F30-Broccoli and F30-2dBroccoli as controls
From the text: In order to detect whether Pepper binds to III-3 in the form of monomer or polymer, F30-Pepper-1 was identified by the Native PAGE using the monomeric F30-Broccoli (SEQ ID NO: 4) and F30-2dBroccoli (SEQ ID NO: 5) (Filonov et al. Journal of the American Chemical Society 2014. 136: 16299-16308; Filonov et al. Chemistry & biology 2015. 22: 649-660) as the controls. The fluorescence imaging result was compared with the staining result by SYBR Gold (universal nucleic acid dye that was purchased from Invitrogen).

CN(CCO)c1ccc(/C=C(\C#N)c2ccc(C#N)cc2)cc1 [III-3]
RNA labeling in yeast cells [1]: bright yellow-green fluorescence only when F30-Pepper-1 was expressed and in the presence of III-3 | fluorescent labeling of RNA in bacteria [2]: bright yellow-green fluorescence only when F30-Pepper-1 was expressed and in the presence of III-3

GTP sensor: Pepper-1 with stem-loop replaced by GTP aptamer, linkage 3, SEQ ID No:22 (UCCCCAAUCGUGGCGUGUCGUAAGAAGAGCACGUAUACGCAAUAACUGGCGCCGGGA; listed as RNA, chemistry not given here)
activation fold of GTP sensor (Pepper-based GTP sensor): 10 folds

B1: mCherry-4Pepper: mCherry mRNA fused with 4Pepper-7, SEQ ID No: 26 (nucleic acid)
chain: AUGGUGAGCAAGGGCGAGGAGGAUAACAUGGCCAUCAUCAAGGAGUUCAUGCGCUUCAAGGUGCACAUGGAGGGCUCCGUGAACGGCCACGAGUUCGAGAUCGAGGGCGAGGGCGAGGGCCGCCCCUACGAGGGCACCCAGACCGCCAAGCUGAAGGUGACCAAGGGUGGCCCCCUGCCCUUCGCCUGGGACAUCCUGUCCCCUCAGUUCAUGUACGGCUCCAAGGCCUACGUGAAGCACCCCGCCGACAUCCCCGACUACUUGAAGCUGUCCUUCCCCGAGGGCUUCAAGUGGGAGCGCGUGAUGAACUUCGAGGACGGCGGCGUGGUGACCGUGACCCAGGACUCCUCCCUGCAGGACGGCGAGUUCAUCUACAAGGUGAAGCUGCGCGGCACCAACUUCCCCUCCGACGGCCCCGUAAUGCAGAAGAAGACCAUGGGCUGGGAGGCCUCCUCCGAGCGGAUGUACCCCGAGGACGGCGCCCUGAAGGGCGAGAUCAAGCAGAGGCUGAAGCUGAAGGACGGCGGCCACUACGACGCUGAGGUCAAGACCACCUACAAGGCCAAGAAGCCCGUGCAGCUGCCCGGCGCCUACAACGUCAACAUCAAGUUGGACAUCACCUCCCACAACGAGGACUACACCAUCGUGGAACAGUACGAACGCGCCGAGGGCCGCCACUCCACCGGCGGCAUGGACGAGCUGUACAAGUAACUCGCUAGAGCAUGGUUAAGCUUCCCACGGAGGAUCCCCAAUCGUGGCGUGUCGGCCUCUCCCAAUCGUGGCGUGUCGGCCUCUCCCAAUCGUGGCGUGUCGGCCUCUCCCAAUCGUGGCGUGUCGGCCUCUCUUCGGAGAGGCACUGGCGCCGGAGAGGCACUGGCGCCGGAGAGGCACUGGCGCCGGAGAGGCACUGGCGCCGGGAUCCUCCGUGGG
in-gel fluorescence of recovered RNA [3]: bright Pepper-III-3 fluorescence signals

B2: F30-Pepper-1: RNA aptamer, Pepper-1 in F30 scaffold RNA, SEQ ID NO: 2 (nucleic acid)
chain: UUGCCAUGUGUAUGUGGGUUCGCCCACAUACUCUGAUGAUCCCCAAUCGUGGCGUGUCGGCCUGCUUCGGCAGGCACUGGCGCCGGGAUCAUUCAUGGCAA
modifications: RNA, backbone not given here
Activation folds ([4]; Activation of III-3 by Pepper mutants with multiple mutations): 3600 folds | Activation folds ([4]; Activation of III-3 by Pepper mutants with single mutation): 3600 folds | Kd [5]: 3.5 nM | Tm [6]: 55 °C | form in which aptamer binds III-3 (monomer or polymer) [7]: monomer
